Substitutions are numbered along the chain they refer to. Names and notes keep the numbering of the source.

In test [1] the target is T1, Staufen/YFP fusion protein (human, UniProt O95793 82-577).
T1 construct: BRET acceptor, expressed in live 293T cells; also called pCMV-Staufen/YFP; not shown: YFP of pCMV-GFP-Topaz (red-shifted GFP variant of Aequorea victoria GFP); its substitutions and the junction are not pri
T1 sequence: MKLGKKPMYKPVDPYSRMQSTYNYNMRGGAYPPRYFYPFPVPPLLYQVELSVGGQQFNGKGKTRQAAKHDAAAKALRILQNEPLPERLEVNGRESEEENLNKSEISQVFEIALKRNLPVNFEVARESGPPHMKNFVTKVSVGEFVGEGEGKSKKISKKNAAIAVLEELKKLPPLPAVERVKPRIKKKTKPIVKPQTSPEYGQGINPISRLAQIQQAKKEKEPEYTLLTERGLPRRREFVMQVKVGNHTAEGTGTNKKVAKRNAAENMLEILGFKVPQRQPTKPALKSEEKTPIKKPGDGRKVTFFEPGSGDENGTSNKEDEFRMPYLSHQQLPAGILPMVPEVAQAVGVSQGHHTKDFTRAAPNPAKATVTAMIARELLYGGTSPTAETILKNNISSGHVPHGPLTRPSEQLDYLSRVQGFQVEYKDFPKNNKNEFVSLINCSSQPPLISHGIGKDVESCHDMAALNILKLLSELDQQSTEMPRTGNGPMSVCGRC
Put plainly: BRET in live 293T cells.

Test [2] addresses HIV-1 CA (processed form of pr55Gag, CAp24/p25) (HIV-1 (pNL4-3), UniProt P12493 133-363). Put plainly: co-immunoprecipitation with anti-HA.
In test [3] the target is T2, HIV-1 pr55Gag (Gag precursor expressed from pNL4-3 proviruses) (HIV-1 (pNL4-3), UniProt P12493 2-500).
T2 construct: In lysates of transfected 293T cells; The anti-CA antibody also pulls down pr41Gag and CAp24/p25
The test is described as follows: co-immunoprecipitation with anti-CA, Western with anti-HA.

B1: NC/Rluc (other)
chain: MQRGNFRNQRKIVKCFNCGKEGHTARNCRAPRKKGCWKCGKEGHQMKDCTERQAN
notes: domain: NC; not shown: Renilla reniformis luciferase (Rluc) of pRluc-N1(h)
B1: the binding result in test [1] is reported as “binds”.

B2: MA/Rluc (other)
chain: MGARASVLSGGELDRWEKIRLRPGGKKKYKLKHIVWASRELERFAVNPGLLETSEGCRQILGQLQPSLQTGSEELRSLYNTVATLYCVHQRIEIKDTKEALDKIEEEQNKSKKKAQQAAADTGHSNQVSQNY
notes: domain: MA; not shown: Renilla reniformis luciferase (Rluc) of pRluc-N1(h)
Take B2: the binding result in test [1] was “no binding”.

B3: Staufen-HA (wild-type human Staufen, short isoform, HA-tagged) (other)
chain: T1 sequence
notes: Expressed in 293T cells from the pNL4-3/Staufen-HA chimeric provirus (in the nef reading frame) or from a Staufen-HA expressor (pcDNA3-RSV-hStau-HA); Runs as a 60 kDa band; also called hStau/HA; HA-hStau
Consider B3, for which, in test [2], the binding result is reported as “no binding”.

B4: Staufen F135A-HA (full-length Staufen with a point mutation in dsRBD3) (other)
chain: T1 sequence with F135A
notes: Expressed from the pNL4-3/StaufenF135A-HA chimeric provirus
For the molecule B4, in test [3], the binding result is on record as “no binding”.

B5: p2-p1/Rluc (other)
chain: AEAMSQVTNSATIMMQRGNFRNQRKIVKCFNCGKEGHTARNCRAPRKKGCWKCGKEGHQMKDCTERQANFLGKIWPSYKGRPGNF
notes: domain: p2-p1; not shown: Renilla reniformis luciferase (Rluc) of pRluc-N1(h)
On to B5, for which the binding result in test [1] is reported as “binds”.

B6: p6/Rluc (other)
chain: LQSRPEPTAPPEESFRSGVETTTPPQKQEPIDKELYPLTSLRSLFGNDPSSQ
notes: domain: p6; not shown: Renilla reniformis luciferase (Rluc) of pRluc-N1(h)
Regarding B6, in test [1], the binding result was “no binding”.
